According to PMC5040590:
pKd: −log10 of the molar value.

Legend:
[1] = molecular target: r-synGAP-α1 (soluble, recombinant synGAP-α1, residues 103-1293) (rat)
[2] = molecular target: r-synGAP-α1 (soluble, recombinant synGAP-α1, residues 103-1293) (rat); test: pull-down; as a1, with or without Ca2+/CaM during the incubation with PDZ resin (legend: 0.7 mM CaCl2/3.4 μM CaM; methods: 2.5 µM CaM and 0.5 mM CaCl2); 500 nM r-synGAP-α1, 60 min, 25°C
[3] = molecular target: calmodulin (CaM), with Ca2+ (UniProt P62157); test: SPR; CaM amine-coupled to a CM5 chip (50 RU); synGAP injected in HBS-EP+ with 10 mM CaCl2, 25°C, 100 µl/min; equilibrium analysis
[4] = molecular target: PDZ3 of PSD-95 (residues 302-402), soluble recombinant (mouse) (UniProt Q62108); test: SPR; conventional Biacore assay: varying concentrations of r-synGAP-α1 applied to a chip with immobilised PDZ domain; one experiment
[5] = molecular target: CaM-Sepharose 4B (calmodulin on Sepharose resin) (UniProt P62157); test: pull-down; equilibrium binding of purified synGAP (1-500 nM, 300 µl) to 50 µl CaM-Sepharose 4B, 60 min; 50 mM Tris pH 7.5, 200 mM NaCl, 5 mM TCEP, 2 mM CaCl2; bound protein by quantitative immunoblot; hyperbolic fit
[6] = molecular target: PDZ123 domain-HaloTag fusion on HaloLink resin (PDZ123 affinity resin) (mouse) (UniProt Q62108); test: pull-down; PDZ domain-HaloTag fusions on HaloLink resin (20 µl); r-synGAP-α1 500 nM, 200 µl, 60 min, 25°C; 25 mM Tris pH 7.0, 150 mM NaCl, 1 mM MgCl2, 0.5 mM TCEP, 0.2% Tergitol, 0.5 mM EDTA; bound protein eluted, SDS-PAGE, Gel Code Blue, quantified
[7] = molecular target: r-synGAP-α1 (soluble, recombinant synGAP-α1, residues 103-1293) (rat); test: SPR; 'competition in solution': 25 nM r-synGAP-α1 pre-equilibrated with 0-10 µM soluble PDZ domain; free r-synGAP-α1 captured on the same PDZ domain amine-coupled to a CM5 chip; Biacore T200, HBS-EP+, 25°C; single-site fit
[8] = molecular target: PDZ123 domain-HaloTag fusion on HaloLink resin (PDZ123 affinity resin) (UniProt Q62108); test: PDZ123 affinity resin binding (pull-down, eluate quantified); details: phosphorylated 0.5 min with 10 nM CaMKII, 0.7 mM CaCl2/3.4 μM CaM; resin 60 min at 25°C; n = 4; parent: est. 0.0079; read off a plot

## calmodulin (CaM), with Ca2+ (from UniProt P62157 1-149) (natural protein)
[1]
  rate and stoichiometry of phosphorylation of r-synGAP-α1 by CDK5/p35 or CDK5/p25 in the presence of Ca2+/CaM (0.7 mM CaCl2, 3.4 μM CaM): 2 fold
[2]
  percent reduction of binding of r-synGAP-α1 to PDZ3 with Ca2+/CaM: 25%

## r-synGAP-α1 (soluble, recombinant synGAP-α1, residues 103-1293) (domain or fragment)
[3]
  pKd: 8.05
[4]
  pKd: 6.14
[5]
  pKd: 7.51
[6]
  amount bound per individual PDZ domain, relative to PDZ1 or PDZ2 alone: 4 fold
  amount bound per individual PDZ domain, relative to PDZ3 alone: 2 fold

## PDZ2 of PSD-95 (residues 155-249), soluble recombinant (from UniProt Q62108 155-249) (domain or fragment)
[7]
  pKd: 5.82

## r-synGAP-α1 phosphorylated by CaMKII for 0.5 min S1123D
[8]
  response (pmol r-synGAP-α1/pmol PDZ domain): 0.0099

## r-synGAP-α1 phosphorylated by CaMKII for 0.5 min S1093D; S1123D
[8]
  response (pmol r-synGAP-α1/pmol PDZ domain): 0.0083

## r-synGAP-α1 phosphorylated by PLK2 for 10 min (domain or fragment)
[6]
  decrease of binding relative to unphosphorylated r-synGAP-α1: 40%

## PDZ3 of PSD-95 (residues 302-402), soluble recombinant (from UniProt Q62108 302-402) (domain or fragment)
[7]
  pKd: 6.21

## r-synGAP-α1 phosphorylated by CaMKII for 0.5 min S1283D
[8]
  response (pmol r-synGAP-α1/pmol PDZ domain): 0.011

## r-synGAP-α1 phosphorylated by CaMKII for 0.5 min S1093D; S1123D; S1283D
[8]
  response (pmol r-synGAP-α1/pmol PDZ domain): 0.014
